Results as given in article PMC4965175.

Target: D-allulose 3-epimerase from Flavonifractor plautii (Flavonifractor plautii ATCC 29863)
Assay: SEC; gel filtration on Sephacryl S-300 HR 16/60; purified enzyme eluted with 50 mM Tris-HCl pH 7.5, 150 mM NaCl, 1 mL/min; calibrated with ferritin, catalase, aldolase and conalbumin

- stoichiometry N: 4
Substance: D-allulose 3-epimerase from Flavonifractor plautii (enzyme)
